Measured values as given in IntAct's records for PubMed 29039417.

B1: BBSome complex member BBS2 (Homo sapiens), Q9BXC9 (parent)
chain: MLLPVFTLKLRHKISPRMVAIGRYDGTHPCLAAATQTGKVFIHNPHTRNQHVSASRVFQSPLESDVSLLSINQAVSCLTAGVLNPELGYDALLVGTQTNLLAYDVYNNSDLFYREVADGANAIVLGTLGDISSPLAIIGGNCALQGFNHEGSDLFWTVTGDNVNSLALCDFDGDGKKELLVGSEDFDIRVFKEDEIVAEMTETEIVTSLCPMYGSRFGYALSNGTVGVYDKTSRYWRIKSKNHAMSIHAFDLNSDGVNELITGWSNGKVDARSDRTGEVIFKDNFSSAIAGVVEGDYRMDGHIQLICCSVDGEIRGYLPGTAEMRGNLMDTSAEQDLIRELSQKKQNLLLELRNYEENAKAELASPLNEADGHRGIIPANTRLHTTLSVSLGNETQTAHTELRISTSNDTIIRAVLIFAEGIFTGESHVVHPSIHNLSSSICIPIVPPKDVPVDLHLKAFVGYRSSTQFHVFESTRQLPRFSMYALTSLDPASEPISYVNFTIAERAQRVVVWLGQNFLLPEDTHIQNAPFQVCFTSLRNGGHLHIKIKLSGEITINTDDIDLAGDIIQSMASFFAIEDLQVEADFPVYFEELRKVLVKVDEYHSVHQKLSADMADHSNLIRSLLVGAEDARLMRDMKTMKSRYMELYDLNRDLLNGYKIRCNNHTELLGNLKAVNQAIQRAGRLRVGKPKNQVITACRDAIRSNNINTLFKIMRVGTASS
partner: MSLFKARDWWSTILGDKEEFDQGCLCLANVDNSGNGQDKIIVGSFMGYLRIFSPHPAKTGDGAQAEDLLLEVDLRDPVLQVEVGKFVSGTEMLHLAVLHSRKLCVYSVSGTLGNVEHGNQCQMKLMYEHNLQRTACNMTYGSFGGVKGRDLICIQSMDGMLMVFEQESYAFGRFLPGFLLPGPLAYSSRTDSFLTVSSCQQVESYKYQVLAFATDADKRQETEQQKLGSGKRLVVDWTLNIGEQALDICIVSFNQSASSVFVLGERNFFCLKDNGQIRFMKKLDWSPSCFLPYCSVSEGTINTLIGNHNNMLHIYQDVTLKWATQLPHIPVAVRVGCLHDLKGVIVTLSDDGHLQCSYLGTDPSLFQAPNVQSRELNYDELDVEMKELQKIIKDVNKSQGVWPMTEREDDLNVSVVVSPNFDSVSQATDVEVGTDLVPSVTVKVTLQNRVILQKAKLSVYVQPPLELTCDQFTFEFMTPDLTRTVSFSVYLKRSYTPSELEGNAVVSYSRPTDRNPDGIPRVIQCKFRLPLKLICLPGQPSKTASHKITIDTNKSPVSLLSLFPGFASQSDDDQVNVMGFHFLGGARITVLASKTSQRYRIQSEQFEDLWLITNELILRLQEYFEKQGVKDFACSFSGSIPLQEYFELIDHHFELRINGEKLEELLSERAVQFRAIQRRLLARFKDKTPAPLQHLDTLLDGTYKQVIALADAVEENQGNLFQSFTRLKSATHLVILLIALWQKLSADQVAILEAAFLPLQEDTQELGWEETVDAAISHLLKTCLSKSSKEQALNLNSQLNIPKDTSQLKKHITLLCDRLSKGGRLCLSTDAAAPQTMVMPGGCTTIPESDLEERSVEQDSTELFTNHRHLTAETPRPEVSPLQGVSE
B2: Protein PTHB1 (Homo sapiens), Q3SYG4 (parent)
chain: B1 partner
partner: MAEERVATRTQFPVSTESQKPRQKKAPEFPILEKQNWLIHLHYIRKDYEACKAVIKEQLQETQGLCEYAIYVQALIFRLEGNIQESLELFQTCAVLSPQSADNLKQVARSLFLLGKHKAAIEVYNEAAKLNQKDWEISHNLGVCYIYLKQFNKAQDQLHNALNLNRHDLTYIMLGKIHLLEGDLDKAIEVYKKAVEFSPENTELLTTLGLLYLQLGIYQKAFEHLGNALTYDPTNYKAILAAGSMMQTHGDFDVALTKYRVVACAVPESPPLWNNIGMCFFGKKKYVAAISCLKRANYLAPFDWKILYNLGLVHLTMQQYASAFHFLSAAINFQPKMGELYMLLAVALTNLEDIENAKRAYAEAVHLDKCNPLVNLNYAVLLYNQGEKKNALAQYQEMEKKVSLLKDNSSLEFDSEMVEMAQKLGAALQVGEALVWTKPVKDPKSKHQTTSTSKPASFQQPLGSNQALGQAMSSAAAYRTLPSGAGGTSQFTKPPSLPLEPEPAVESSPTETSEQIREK

Variants of: B1
Conditions: with pthb1_human BBS9, Q3SYG4

effect of a mutation on the interaction | Variant
with no effect | L328K
with no effect | L328E
with no effect | L328A
with no effect | N327E
with no effect | N327A
with no effect | N327K
with no effect | G688K
with no effect | S332E
with no effect | S332A
with no effect | S332K
with no effect | R325K
with no effect | R325A
with no effect | R325E
with no effect | T331E
with no effect | T331K
with no effect | T331A
with no effect | G326E
with no effect | G326A
with no effect | G326K
with no effect | M329E
with no effect | M329A
with no effect | M329K
with no effect | A333K
with no effect | A333E
with no effect | D330E
with no effect | D330K
with no effect | D330A

Variants of: B1
Conditions: with pthb1_human BBS9, Q3SYG4
Remark: another data set of the same source

effect of a mutation on the interaction | Variant
disrupting interaction strength | G688K
disrupting interaction strength | I568E
disrupting interaction strength | S365R
disrupting interaction strength | L455E
disrupting interaction strength | W513E

Variants of: B1
Conditions: with pthb1_human BBS9, Q3SYG4
Remark: another data set of the same source

effect of a mutation on the interaction | Variant
with no effect | L455E
with no effect | W513E

Variants of: B2
Conditions: with bbs4_human BBS4, Q96RK4

Variant | effect of a mutation on the interaction
E852K | with no effect
E852A | with no effect
S849K | with no effect
S849A | with no effect
S849E | with no effect
C843K | with no effect
C843E | with no effect
C843A | with no effect
T845K | with no effect
T845A | with no effect
T845E | with no effect
D850E | with no effect
D850A | with no effect
D850K | with no effect
E848K | with no effect
E848A | with no effect
M837K | with no effect
M837I | disrupting interaction strength
M837A | with no effect

Variant | effect of a mutation on the interaction
M837E | with no effect
R854E | with no effect
R854K | with no effect
R854A | with no effect
P847E | with no effect
P847K | with no effect
P847A | with no effect
I846K | with no effect
I846A | with no effect
I846E | with no effect
M839A | disrupting interaction strength
M839E | disrupting interaction strength
M839K | with no effect
G841E | with no effect
G841A | with no effect
G841K | with no effect
L851K | with no effect
L851A | with no effect
L851E | with no effect

Variant | effect of a mutation on the interaction
V838A | disrupting interaction strength
V838E | disrupting interaction strength
V838K | disrupting interaction strength
G842K | with no effect
G842A | with no effect
G842E | with no effect
T844E | with no effect
T844A | with no effect
T844K | with no effect
P840A | disrupting interaction strength
P840K | with no effect
P840S | disrupting interaction strength
P840E | with no effect
T836K | with no effect
T836E | with no effect
E853K | with no effect
E853A | with no effect
S855A | with no effect
S855E | with no effect

Continued, values first:

effect of a mutation on the interaction | Variant
with no effect | H869A
with no effect | H869K
with no effect | H869E
with no effect | S880K
with no effect | S880E
with no effect | S880A
with no effect | V856A
with no effect | V856K
with no effect | V856E
with no effect | L863E
with no effect | L863K
with no effect | L863A
with no effect | T865A
with no effect | T865E
with no effect | T865K
with no effect | E873A
with no effect | E873K
with no effect | E857K
with no effect | E857A
with no effect | E862A
with no effect | E862K
with no effect | G884A
with no effect | G884K

effect of a mutation on the interaction | Variant
with no effect | G884E
with no effect | Q858A
with no effect | Q858K
with no effect | Q858E
with no effect | Q883E
with no effect | Q883K
with no effect | Q883A
with no effect | P877E
with no effect | P877K
with no effect | P877A
with no effect | D859K
with no effect | D859E
with no effect | D859A
with no effect | V885A
with no effect | V885E
with no effect | V885K
with no effect | L870A
with no effect | L870K
with no effect | L870E
with no effect | R868A
with no effect | R868K
with no effect | R868E
with no effect | T861E

effect of a mutation on the interaction | Variant
with no effect | T861A
with no effect | T861K
with no effect | H867E
with no effect | H867K
with no effect | H867A
with no effect | S886A
with no effect | S886E
with no effect | S886K
with no effect | E887K
with no effect | E887A
with no effect | T871A
with no effect | T871K
with no effect | T871E
with no effect | V879A
with no effect | V879E
with no effect | V879K
with no effect | L882K
with no effect | L882E
with no effect | L882A
with no effect | N866K
with no effect | N866E
with no effect | N866A
with no effect | P881K

effect of a mutation on the interaction | Variant
with no effect | P881E
with no effect | P881A
with no effect | R876K
with no effect | R876E
with no effect | R876A
with no effect | P875E
with no effect | P875A
with no effect | P875K
with no effect | S860A
with no effect | S860E
with no effect | S860K
with no effect | S855K
with no effect | E878K
with no effect | E878A
with no effect | A872E
with no effect | A872K
with no effect | T874K
with no effect | T874E
with no effect | T874A
with no effect | F864E
with no effect | F864K
with no effect | F864A
